In patent US20150315267A1:

Target: soluble, freshly prepared monomeric Aβ(1-40) (UniProt P05067)
Assay: capture ELISA, antibody immobilized, soluble monomeric Aβ(1-40) in solution

EC50: 1 nM
Substance: 3D6 (antibody)
